Assay results as given in US20230381228A1 (University of California, published 2023).

The binders below were run against T1, dipeptidyl aminopeptidase-like protein 6 (DPP6), human isoform 1 (human, UniProt P42658 117-865, limits assumed) (assay: affinity, method not stated (Table 1-4)).
T1 construct: also called DPPX; DPP6 L
T1 sequence (P42658 117-865 limits assumed): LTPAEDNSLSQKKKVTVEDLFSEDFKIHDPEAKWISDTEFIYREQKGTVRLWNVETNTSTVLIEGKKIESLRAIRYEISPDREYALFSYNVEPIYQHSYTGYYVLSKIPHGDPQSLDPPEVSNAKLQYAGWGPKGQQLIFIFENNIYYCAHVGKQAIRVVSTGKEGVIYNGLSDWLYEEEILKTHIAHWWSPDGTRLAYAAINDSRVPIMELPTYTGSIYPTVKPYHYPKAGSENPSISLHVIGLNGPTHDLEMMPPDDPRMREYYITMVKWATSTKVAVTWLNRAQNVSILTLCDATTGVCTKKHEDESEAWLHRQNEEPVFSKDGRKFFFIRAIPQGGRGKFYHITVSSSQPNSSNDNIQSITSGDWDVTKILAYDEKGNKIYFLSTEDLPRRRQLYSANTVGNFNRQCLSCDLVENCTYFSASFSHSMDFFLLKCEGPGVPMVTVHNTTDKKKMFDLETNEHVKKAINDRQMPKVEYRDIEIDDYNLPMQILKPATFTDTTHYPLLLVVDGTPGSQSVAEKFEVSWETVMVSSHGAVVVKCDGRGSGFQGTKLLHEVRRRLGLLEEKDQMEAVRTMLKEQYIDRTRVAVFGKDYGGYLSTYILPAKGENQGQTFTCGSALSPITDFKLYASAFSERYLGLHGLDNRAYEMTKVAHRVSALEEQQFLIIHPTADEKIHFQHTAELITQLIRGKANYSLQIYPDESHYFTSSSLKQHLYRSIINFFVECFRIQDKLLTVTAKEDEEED

Row | Kd [µM] | Binder
1 | 0.013 | anti-DPP6 nanobody 2hD6 (VHH) VHH: QVQLQESGGGSVQAGGSLRLSCAASSYTYSYSCMAWFRQAPGKERERVASIHTGTGTANYADSAKGRFTISQDIAANTVYLQMNSLKLEDTAMYYCAARPGSAALRCTTDYSKPHDFTYWGQGTQVTVSS
2 | 0.0012 | anti-DPP6 nanobody 4hD29 (VHH) VHH: QVQLQESGGGLVQPGGSLRLSCAASGFTFSSNYMTWVRQAPGKGPEWVSGINPDGSSTYYADSVKGRFTISRDNAKNTLYLQMNSLKSEDTALYKCATGAAPRIPTTLRGQGTQVTVSS
3 | 0.069 | anti-DPP6 nanobody 2hD1 (VHH) VHH: QVQLQESGGGLVQPGGSLRLSCAASGYPYGYTFSSYCMRWFRQAPGKDREGVARFERNGLTTYYDDSVKGRFTISQDNVKNTVYLQMNSLKPEDTATYYCAAAPKQLRTCGDYNYWGQGTQVTVSS
4 | 0.0272 | anti-DPP6 nanobody 2hD123-A24V (VHH) VHH: QVQLQESGGGSVQAGGSLRLSCAVSGSSYSRFRMGWFRQVPGKEREGVAAIYRSDGRTYYADSVKGRFTISQDNTKNTVYLQMNSLKPEDTAMYYCAAGAYSSYLMDANFAYWGQGTQVTVSS
